Measured values published in patent publication US7384773.

Target: recombinant soluble human beta secretase expressed in CHO-K1 cells (Hu_Asp-2LΔTM(His)6), not treated with HIV protease (UniProt P56817)

## HIV-1 protease
  cleavage of the F39-V40 bond (N-terminal sequence analysis): nearly 100% cleavage of the F^39-V^40 bond occurred
